Publication PMC5411485

Tests used:
[1] = tested on: ScNsrR D8A, [4Fe-4S] (Streptomyces coelicolor); test: EMSA; details: EMSA: 10 mM Tris, 54 mM KCl, 0.3% glycerol, 1.32 mM glutathione, pH 7.2, on ice ~10 min; 5% PAGE in 1x TBE
[2] = tested on: ScNsrR D8C, [4Fe-4S] (Streptomyces coelicolor); test: EMSA; details: EMSA: 10 mM Tris, 54 mM KCl, 0.3% glycerol, 1.32 mM glutathione, pH 7.2, on ice ~10 min; 5% PAGE in 1x TBE

**Q.** What does the source list for hmpA1 promoter probe?
**A.** K half ([4Fe-4S] protein:DNA ratio) [1]: > 20; K half ([4Fe-4S] protein:DNA ratio) [2]: 20
